Measurements reported in US20130116146A1 (University of California, published 2013).
Non-standard residues stand in square brackets, D forms with d. Primed or numbered codes have the meaning given here. No end group written: not given here. Me3″ = trimethyl (trimethyl-lysine); Ahx = NCCCCCC(=O)O

Target: T1, Polycomb protein chromodomain (a.a. 1-90), GST-tagged fusion protein (Drosophila melanogaster, UniProt P26017 1-90)
T1 construct: range 1-90; also called Polycomb-GST fusion protein; Polycomb chromodomain; not shown: GST tag
T1 sequence (looked up): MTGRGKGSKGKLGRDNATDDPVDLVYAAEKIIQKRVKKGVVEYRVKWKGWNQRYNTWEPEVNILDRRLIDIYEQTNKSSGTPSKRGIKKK
Assay: peptide microarray, GST-Polycomb chromodomain overlaid on trimethylated peptides, p<0.001 in at least two of three spots
Text: There are a total of 46 histone peptide sequences (9 a.a. long) with a single lysine-trimethylation site which are conserved between the human and fruit fly H2, H3 and H4 proteins (Table II). These were screened for Polycomb protein chromodomain binding by peptide microarray. Each peptide sequence was screened as triplets, and the fluorescence intensity was quantified with background subtraction individually for each spot from the microarray images by ImageJ⁹ and the whole data set was fit to a mixed Gaussian distribution model (FIG. 8, Table III).
The peptide microarray was rinsed with TBST buffer (25 mM Tris, 125 mM NaCl, 0.05% Tween-20, pH 8) followed by blocking with 5% non-fat milk in TBST (room temperature 1 hour or 4° C. overnight). The slide was then incubated at 4° C. with Polycomb-GST fusion protein at a final concentration of […] in 5% non-fat milk/TBST for 6 hours. After washing three times for 10 minutes each with TBST, the slide was incubated with an anti-GST mouse monoclonal IgG antibody (Thermo) at a final concentration of 1 μg/mL in 5% non-fat milk/TBST and shaken gently for 1 hour at room temperature. […] The slide was shaken for 1 hr at room temperature and washed three times with TBST.

| Binder | binding result |
| --- | --- |
| IQAVLLPK(Me3″)K (also called H2A1 117) [IQAVLLPKK, H2A_DROME lysine site 117, trimethylated] | binds |
| EGTKAVTK(Me3″)Y (also called H2B1A 117) [EGTKAVTKY, H2B_DROME lysine site 117, trimethylated] | binds |
| RIHRLLRK(Me3″)G (also called H2A1A 35) [RIHRLLRKG, H2A_DROME lysine site 35, trimethylated] | binds |
| GGAKRHRK(Me3″)V (also called H4 20) [GGAKRHRKV, H4_DROME lysine site 20, trimethylated] | binds |
| PRKQLATK(Me3″)A (also called H3.3 23) [PRKQLATKA, H3_DROME lysine site 23, trimethylated] | binds |
| GRIHRHLK(Me3″)S (also called H2AZ 37) [GRIHRHLKS, H2AV_DROME lysine site 37, trimethylated] | binds |
| MDVVYALK(Me3″)R (also called H4 91) [MDVVYALKR, H4_DROME lysine site 91, trimethylated] | binds |
| ASKDLKVK(Me3″)R (also called H2AZ, H2AV 79) [ASKDLKVKR, H2AV_DROME lysine site 79, trimethylated] | binds |
| LATKAARK(Me3″)S (also called H3K27me3; H3.3 27) [LATKAARKS, H3_DROME lysine site 27, trimethylated] | binds |
| REIRRYQK(Me3″)S (also called H3.3 56) [REIRRYQKS, H3_DROME lysine site 56, trimethylated] | binds |
| DSGKAKAK(Me3″)A (also called H2AV 15) [DSGKAKAKA, H2AV_DROME lysine site 15, trimethylated] | binds |
| RTKQTARK(Me3″)S (also called H3.3 9) [RTKQTARKS, H3_DROME lysine site 9, trimethylated] | binds |

Target: T2, GST-tagged Abl SH3 domain fusion protein (human, UniProt P00519 61-121, limits assumed)
T2 construct: domain: SH3 domain; also called GST-Abl SH3; Abl1 SH3 domain; not shown: GST tag
Assay: peptide microarray, GST-Abl SH3 5 uM overlaid, peptide printed at 1 mg/ml, Cy3 fluorescence, triplicates
Protocol: All peptides were synthesized by Sigma-Aldrich. The peptides were printed onto glass slides in triplicates by ArrayIt Corporation. A buffer blank and a Cy3 marker were also printed in triplicates. The peptide arrays were blocked with the blocking buffer (5% non-fat dry milk, TBS pH8.0, 0.05% Tween 20) for an hour at room temperature. Next, the peptide arrays were incubated overnight at 4° C. with purified GST-Abl SH3 in the blocking buffer at a final concentration of 5 μM. After washing three times for ten minutes with the TBST buffer (TBS pH8.0, 0.05% Tween 20), an anti-GST antibody (Santa Cruz Biotechnology) was added to a final concentration of 0.2 μg/ml in the blocking buffer for one hour at room temperature. The arrays were then washed three times for ten minutes with the TBST buffer. Finally, the arrays were incubated with the secondary antibody, Cy3-conjugated goat-anti-mouse IgG (H+L) (Jackson ImmunoResearch), for one hour at room temperature, followed by washing for three times for ten minutes with the TBST buffer. As a control, the peptide array was incubated with the anti-GST and the secondary antibodies alone.
To analyze the microarray data, the spots that were flagged as noisy were first removed. For the high (1 mg/ml) and low (0.5 mg/ml) printing concentrations, 724 and 767 (out of 800) spots remained for later analyses, respectively. Next, the statistical cut-off was determined for the significant fluorescence signal by modeling the background intensity distribution using a Gamma distribution (FIG. 4). The spots were binned based on the fluorescence intensity. To have a better curve fitting, the long tail of the histogram that represented strong binding peptides was removed and only the bins with intensity less than 900 and 1500 for the high and low concentrations, respectively, were kept. The model fitting and p-value calculation were conducted using R and P-value of 0.05 was used as the cutoff.

T2 sequence (P00519 61-121 limits assumed): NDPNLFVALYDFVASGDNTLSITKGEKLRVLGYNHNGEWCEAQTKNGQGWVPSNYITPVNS

| Binder | Average fluorescence intensity (high printing concentration) |
| --- | --- |
| [Ahx]APSGPPPPPP [WASL_HUMAN 354-363 peptide APSGPPPPPP] | 52300 |
| [Ahx]PPAGGPPPPP (protein label as printed) [VASP2_HUMAN 165-174 peptide PPAGGPPPPP] | 26200 |
| PNQVPPPPPP (not fully specified (N-terminus)) [ENAH_HUMAN 357-366 peptide PNQVPPPPPP] | 58000 |
| [Ahx]PVAPPPPPPP [WASL_HUMAN 370-379 peptide PVAPPPPPPP] | 48800 |
| [Ahx]LPPPPLPPPP [YLPM1_HUMAN 81-90 peptide LPPPPLPPPP] | 595 |
| [Ahx]PPPPPPPGPP (protein label as printed) [WASP2_HUMAN 394-403 peptide PPPPPPPGPP] | 2380 |
| LPPGPPPPVP (not fully specified (N-terminus)) [CPSF6_HUMAN 292-301 peptide LPPGPPPPVP] | 1900 |
| [Ahx]GPPMPPPPPP [WASP_HUMAN 390-399 peptide GPPMPPPPPP] | 23400 |
| SPPLPPPPPP (not fully specified (N-terminus)) [RAPH1_HUMAN 677-686 peptide SPPLPPPPPP] | 17500 |
| PPAYPPPPVP (not fully specified (N-terminus)) [3BP2_HUMAN 201-210 peptide PPAYPPPPVP] | 29700 |
| PPAVPPPPVP (not fully specified (N-terminus)) [RIN1_HUMAN 259-268 peptide PPAVPPPPVP] | 42600 |
| [Ahx]SRGGPPPPPP [WASL_HUMAN 283-292 peptide SRGGPPPPPP] | 744 |
| [Ahx]GRGGPPPPPP [WASP_HUMAN 363-372 peptide GRGGPPPPPP] | 1300 |
| APTVPPPLPP (not fully specified (N-terminus)) [3BP1_HUMAN 616-625 peptide APTVPPPLPP] | 45100 |
| CPLQPPPPPP (not fully specified (N-terminus)) [PDE4D_HUMAN peptide CPLQPPPPPP] | 840 |
| PPSLPPPPPP (not fully specified (N-terminus)) [CBLB_HUMAN 818-827 peptide PPSLPPPPPP] | 35000 |
| APPTPPPPPP (not fully specified (N-terminus)) [RAPH1_HUMAN 811-820 peptide APPTPPPPPP] | 54400 |
| PPPPPVPPPP (not fully specified (N-terminus)) [EVL_HUMAN 185-194 peptide PPPPPVPPPP] | 4680 |
| [Ahx]PPPPPMPPPP [YLPM1_HUMAN 102-111 peptide PPPPPMPPPP] | 22800 |
| [Ahx]GPVAPPPPPP [WASL_HUMAN 369-378 peptide GPVAPPPPPP] | 45000 |
| [Ahx]VAPPPPPPPP [WASL_HUMAN 371-380 peptide VAPPPPPPPP] | 914 |
